Residue numbers refer to the chain shown, from its start. Names and notes keep the numbering of the source.
Columns and labels:
[1] = target: T1, Aspergillus oryzae asparaginase, wild type (Wt enzyme), SEQ ID NO: 2 (Aspergillus oryzae, UniProt Q2URI4); assay: Effect of xylitol on asparaginase activity, Wt enzyme; assay type: biochemical; settings: buffer 70.8 g + 29.2 g xylitol, pH 6, 37° C.; activity in buffer without xylitol = 100%
T1 construct: Nessler assay with xylitol or NaCl
Experimental: (§1) Example 13: Asparaginase Activity Assay—Used in Example 14
(§2) Asparaginase hydrolyses asparagine to aspartic acid and ammonium. Produced ammonium is determined using Nessler's reagent.
(§3) Activity is determined relative to a standard of known activity in ASNU or to a relevant control sample. Activity as determined according to this assay is referred to as nASNU.
(§4) Mix buffer and asparagine and let it equilibrate at 37° C. for 10-15 min. Add enzyme standard or sample and incubate for 10 min at 37° C. Add TCA to stop the reaction.
(§5) Ammonium Determination (Nessler Assay)
(§6) Milli-Q water, sample and Nessler's reagent is added to the microtiter plate. Shake for 10 sec and then leave to incubate for 10 min before shaking again and reading at 440 nm.
(§7) Example 14: Testing the Effect of NaCl and Xylitol on Enzyme Activity
(§8) To test the effect of NaCl or xylitol on asparaginase activity, the compounds were added directly to the buffer and asparaginase activity measured using the standard assay described in Example 13. NaCl was tested in two concentrations and xylitol in one.
(§9) Buffer: 20 mM citric acid buffer, pH 6, 0.001% triton X100:
(§10) Xylitol: 70.8 g buffer+29.2 g xylitol
(§11) The measured activity in the presence of either NaCl or xylitol was compared to the activity in buffer without NaCl and xylitol (set as 100%).

[2] = target: T2, Aspergillus niger asparaginase, wild type, SEQ ID NO: 10 (Aspergillus niger, UniProt A2QBE5); assay: Effect of xylitol on asparaginase activity, A. niger wt; assay type: biochemical; settings: buffer 70.8 g + 29.2 g xylitol, pH 6, 37° C.; activity in buffer without xylitol = 100%
T2 construct: enzyme preparation tested in Nessler assay
T2 sequence (A2QBE5 18-378): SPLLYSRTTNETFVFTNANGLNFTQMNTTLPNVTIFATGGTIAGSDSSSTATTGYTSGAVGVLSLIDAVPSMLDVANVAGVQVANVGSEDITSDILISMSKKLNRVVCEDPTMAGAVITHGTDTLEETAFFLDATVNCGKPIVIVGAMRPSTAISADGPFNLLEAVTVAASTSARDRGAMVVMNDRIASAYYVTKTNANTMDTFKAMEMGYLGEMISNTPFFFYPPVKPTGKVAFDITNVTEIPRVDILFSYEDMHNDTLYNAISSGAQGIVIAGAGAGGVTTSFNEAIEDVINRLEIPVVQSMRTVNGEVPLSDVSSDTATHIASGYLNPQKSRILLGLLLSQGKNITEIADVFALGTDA
Experimental: as §1, §2, §3, §4, §5, §6, §7, §8, §9, §10, §11

[3] = substrate: NC(=O)C[C@H](N)C(=O)O; assay: Km and kcat determination, WT; assay type: biochemical, Aspergillus oryzae; settings: other: L-asparagine 0.22-26.6 mM, pH 5.0, 50° C., 10 min
Experimental: (§12) Example 15: Km and Kcat Determination
(§13) Purified enzyme was diluted with 20 mM sodium acetate buffer pH 5.5 to a solution of a specified activity around 2 rASNU/ml. Ten microliters of enzyme solution was added to 100 microL of preincubated substrate solution containing L-asparagine in different concentration (0.22-26.6 mM) constructed by dissolving L-asparagine monohydrate in 100 mM sodium acetate buffer pH 5.0 including 0.02% TritonX-100. After 10 min incubation at 50° C., the amount of generated ammonia in the reaction mixture was measured by using Ammonia Test Kit (Wako Pure Chemicals, Japan) following the package insert protocol. The Km and Vmax were determined from Michaelis-Menten equation, and kcat was calculated using Vmax.

[4] = substrate: NC(=O)C[C@H](N)C(=O)O; assay: Km and kcat determination, JN161; assay type: biochemical, Aspergillus oryzae; settings: other: L-asparagine 0.22-26.6 mM, pH 5.0, 50° C., 10 min
Experimental: as §12, §13

[5] = substrate: NC(=O)C[C@H](N)C(=O)O; assay: Km and kcat determination, JN181; assay type: biochemical, Aspergillus oryzae; settings: other: L-asparagine 0.22-26.6 mM, pH 5.0, 50° C., 10 min
Experimental: as §12, §13

[6] = substrate: NC(=O)C[C@H](N)C(=O)O; assay: Km and kcat determination, JN182; assay type: biochemical, Aspergillus oryzae; settings: other: L-asparagine 0.22-26.6 mM, pH 5.0, 50° C., 10 min
Experimental: as §12, §13

[7] = substrate: NC(=O)C[C@H](N)C(=O)O; assay: Km and kcat determination, JN180; assay type: biochemical, Aspergillus oryzae; settings: other: L-asparagine 0.22-26.6 mM, pH 5.0, 50° C., 10 min
Experimental: as §12, §13

[8] = substrate: NC(=O)C[C@H](N)C(=O)O; assay: Km and kcat determination, JN178; assay type: biochemical, Aspergillus oryzae; settings: other: L-asparagine 0.22-26.6 mM, pH 5.0, 50° C., 10 min
Experimental: as §12, §13

[9] = substrate: NC(=O)C[C@H](N)C(=O)O; assay: Km and kcat determination, JN183; assay type: biochemical, Aspergillus oryzae; settings: other: L-asparagine 0.22-26.6 mM, pH 5.0, 50° C., 10 min
Experimental: as §12, §13

[10] = substrate: NC(=O)C[C@H](N)C(=O)O; assay: Km and kcat determination, JN167; assay type: biochemical, Aspergillus oryzae; settings: other: L-asparagine 0.22-26.6 mM, pH 5.0, 50° C., 10 min
Experimental: as §12, §13

Q: OC[C@@H](O)[C@H](O)[C@@H](O)CO [xylitol] was tested. Which “% activity xylitol” value [1] did it give?
A: 158%

Q: And the “% activity xylitol” value [2]?
A: 176%

B1: Aspergillus oryzae asparaginase, wild type (WT), SEQ ID NO: 2 (Aspergillus oryzae RIB40) (protein)
chain: ATDSNVTYVFTNPNGLNFTQMNTTLPNVTIFATGGTIAGSSADNTATTGYKAGAVGIQTLIDAVPEMLNVANVAGVQVTNVGSPDITSDILLRLSKQINEVVCNDPTMAGAVVTHGTDTLEESAFFLDATVNCRKPVVIVGAMRPSTAISADGPLNLLQSVTVAASPKARDRGALIVMNDRIVSAFYASKTNANTVDTFKAIEMGNLGEVVSNKPYFFYPPVKPTGKTEVDIRNITSIPRVDILYSYEDMHNDTLYSAIDNGAKGIVIAGSGSGSVSTPFSAAMEDITTKHNIPIVASTRTGNGEVPSSAESSQIASGYLNPAKSRVLLGLLLAQGKSIEEMRAVFERIGVA
notes: purified
Q: Which results are given for B1?
A: Km [3]: 950 µM; kcat [3]: 121 s⁻¹

B2: Aspergillus oryzae asparaginase variant JN161: JN070 (N70K S307A A323R T327V A349Q S351A V353I, SEQ ID NO: 4) with K122A P241E K290V S299A S338W (Aspergillus … (protein)
chain: ATDSNVTYVFTNPNGLNFTQMNTTLPNVTIFATGGTIAGSSADKTATTGYKAGAVGIQTLIDAVPEMLNVANVAGVQVTNVGSPDITSDILLRLSAQINEVVCNDPTMAGAVVTHGTDTLEESAFFLDATVNCRKPVVIVGAMRPSTAISADGPLNLLQSVTVAASPKARDRGALIVMNDRIVSAFYASKTNANTVDTFKAIEMGNLGEVVSNKEYFFYPPVKPTGKTEVDIRNITSIPRVDILYSYEDMHNDTLYSAIDNGAVGIVIAGSGAGSVSTPFAAAMEDITTKHNIPIVRSTRVGNGEVPSSAEWSQIASGYLNPQKARILLGLLLAQGKSIEEMRAVFERIGVA
notes: purified; expressed in Aspergillus
Q: Which results are given for B2?
A: Km [4]: 690 µM; kcat [4]: 172 s⁻¹

B3: Aspergillus oryzae asparaginase variant JN181: JN070 (N70K S307A A323R T327V A349Q S351A V353I, SEQ ID NO: 4) with K122A K240R P241E K253R S299A S334P E337S … (protein)
chain: B2 chain with K214R, K227R, V264K, S308P, E311S, W312S
notes: as for B2
Q: With B3 as the molecule, how does the Km [5] read?
A: 580 µM

Q: What about the kcat [5] of the same molecule?
A: 138 s⁻¹

B4: Aspergillus oryzae asparaginase variant JN182: JN070 (N70K S307A A323R T327V A349Q S351A V353I, SEQ ID NO: 4) with K122A P241E S299A S334P E337S (Aspergillus … (protein)
chain: B2 chain with V264K, S308P, E311S, W312S
notes: as for B2
Q: How did the Km [6] turn out when B4 was run?
A: 910 µM

Q: What about the kcat [6] of the same molecule?
A: 186 s⁻¹

B5: Aspergillus oryzae asparaginase variant JN180: JN070 (N70K S307A A323R T327V A349Q S351A V353I, SEQ ID NO: 4) with K122A K240R P241E S299A S334P E337S … (protein)
chain: B2 chain with K214R, V264K, S308P, E311S, W312S
notes: as for B2
Q: What does the source list for B5?
A: Km [7]: 830 µM; kcat [7]: 185 s⁻¹

B6: Aspergillus oryzae asparaginase variant JN178: JN070 (N70K S307A A323R T327V A349Q S351A V353I, SEQ ID NO: 4) with K122A K240R P241E S299A S334P (Aspergillus … (protein)
chain: B2 chain with K214R, V264K, S308P, W312S
notes: as for B2
Q: How did the Km [8] turn out when B6 was run?
A: 880 µM

Q: What about the kcat [8] of the same molecule?
A: 127 s⁻¹

B7: Aspergillus oryzae asparaginase variant JN183: JN070 (N70K S307A A323R T327V A349Q S351A V353I, SEQ ID NO: 4) with K122A P241E S299A S334P S338W (Aspergillus … (protein)
chain: B2 chain with V264K, S308P
notes: as for B2
Q: With B7 as the molecule, how does the Km [9] read?
A: 910 µM

Q: And the kcat [9]?
A: 189 s⁻¹

B8: Aspergillus oryzae asparaginase variant JN167: JN070 (N70K S307A A323R T327V A349Q S351A V353I, SEQ ID NO: 4) with K122A P241E S299A S334P (Aspergillus oryzae … (protein)
chain: B2 chain with V264K, S308P, W312S
notes: as for B2
Q: What does the source list for B8?
A: Km [10]: 670 µM; kcat [10]: 127 s⁻¹
